Source: article PMC11392263
pKd: −log10 of the molar value.

Molecular target: purified 206 kDa rFn (recombinant fibronectin) (UniProt P02751)
Assay: SPR; Biacore T200, 25°C; rFn immobilised on CM5 chip at 8000 RU; rRlpA (0.016-0.500 μM) injected at 30 μl/min in 10 mM Hepes pH 7.4, 150 mM NaCl, 3 mM EDTA, 0.05% P20; 1:1 Langmuir model

Sequence of purified 206 kDa rFn (recombinant fibronectin) (P02751 32-2477): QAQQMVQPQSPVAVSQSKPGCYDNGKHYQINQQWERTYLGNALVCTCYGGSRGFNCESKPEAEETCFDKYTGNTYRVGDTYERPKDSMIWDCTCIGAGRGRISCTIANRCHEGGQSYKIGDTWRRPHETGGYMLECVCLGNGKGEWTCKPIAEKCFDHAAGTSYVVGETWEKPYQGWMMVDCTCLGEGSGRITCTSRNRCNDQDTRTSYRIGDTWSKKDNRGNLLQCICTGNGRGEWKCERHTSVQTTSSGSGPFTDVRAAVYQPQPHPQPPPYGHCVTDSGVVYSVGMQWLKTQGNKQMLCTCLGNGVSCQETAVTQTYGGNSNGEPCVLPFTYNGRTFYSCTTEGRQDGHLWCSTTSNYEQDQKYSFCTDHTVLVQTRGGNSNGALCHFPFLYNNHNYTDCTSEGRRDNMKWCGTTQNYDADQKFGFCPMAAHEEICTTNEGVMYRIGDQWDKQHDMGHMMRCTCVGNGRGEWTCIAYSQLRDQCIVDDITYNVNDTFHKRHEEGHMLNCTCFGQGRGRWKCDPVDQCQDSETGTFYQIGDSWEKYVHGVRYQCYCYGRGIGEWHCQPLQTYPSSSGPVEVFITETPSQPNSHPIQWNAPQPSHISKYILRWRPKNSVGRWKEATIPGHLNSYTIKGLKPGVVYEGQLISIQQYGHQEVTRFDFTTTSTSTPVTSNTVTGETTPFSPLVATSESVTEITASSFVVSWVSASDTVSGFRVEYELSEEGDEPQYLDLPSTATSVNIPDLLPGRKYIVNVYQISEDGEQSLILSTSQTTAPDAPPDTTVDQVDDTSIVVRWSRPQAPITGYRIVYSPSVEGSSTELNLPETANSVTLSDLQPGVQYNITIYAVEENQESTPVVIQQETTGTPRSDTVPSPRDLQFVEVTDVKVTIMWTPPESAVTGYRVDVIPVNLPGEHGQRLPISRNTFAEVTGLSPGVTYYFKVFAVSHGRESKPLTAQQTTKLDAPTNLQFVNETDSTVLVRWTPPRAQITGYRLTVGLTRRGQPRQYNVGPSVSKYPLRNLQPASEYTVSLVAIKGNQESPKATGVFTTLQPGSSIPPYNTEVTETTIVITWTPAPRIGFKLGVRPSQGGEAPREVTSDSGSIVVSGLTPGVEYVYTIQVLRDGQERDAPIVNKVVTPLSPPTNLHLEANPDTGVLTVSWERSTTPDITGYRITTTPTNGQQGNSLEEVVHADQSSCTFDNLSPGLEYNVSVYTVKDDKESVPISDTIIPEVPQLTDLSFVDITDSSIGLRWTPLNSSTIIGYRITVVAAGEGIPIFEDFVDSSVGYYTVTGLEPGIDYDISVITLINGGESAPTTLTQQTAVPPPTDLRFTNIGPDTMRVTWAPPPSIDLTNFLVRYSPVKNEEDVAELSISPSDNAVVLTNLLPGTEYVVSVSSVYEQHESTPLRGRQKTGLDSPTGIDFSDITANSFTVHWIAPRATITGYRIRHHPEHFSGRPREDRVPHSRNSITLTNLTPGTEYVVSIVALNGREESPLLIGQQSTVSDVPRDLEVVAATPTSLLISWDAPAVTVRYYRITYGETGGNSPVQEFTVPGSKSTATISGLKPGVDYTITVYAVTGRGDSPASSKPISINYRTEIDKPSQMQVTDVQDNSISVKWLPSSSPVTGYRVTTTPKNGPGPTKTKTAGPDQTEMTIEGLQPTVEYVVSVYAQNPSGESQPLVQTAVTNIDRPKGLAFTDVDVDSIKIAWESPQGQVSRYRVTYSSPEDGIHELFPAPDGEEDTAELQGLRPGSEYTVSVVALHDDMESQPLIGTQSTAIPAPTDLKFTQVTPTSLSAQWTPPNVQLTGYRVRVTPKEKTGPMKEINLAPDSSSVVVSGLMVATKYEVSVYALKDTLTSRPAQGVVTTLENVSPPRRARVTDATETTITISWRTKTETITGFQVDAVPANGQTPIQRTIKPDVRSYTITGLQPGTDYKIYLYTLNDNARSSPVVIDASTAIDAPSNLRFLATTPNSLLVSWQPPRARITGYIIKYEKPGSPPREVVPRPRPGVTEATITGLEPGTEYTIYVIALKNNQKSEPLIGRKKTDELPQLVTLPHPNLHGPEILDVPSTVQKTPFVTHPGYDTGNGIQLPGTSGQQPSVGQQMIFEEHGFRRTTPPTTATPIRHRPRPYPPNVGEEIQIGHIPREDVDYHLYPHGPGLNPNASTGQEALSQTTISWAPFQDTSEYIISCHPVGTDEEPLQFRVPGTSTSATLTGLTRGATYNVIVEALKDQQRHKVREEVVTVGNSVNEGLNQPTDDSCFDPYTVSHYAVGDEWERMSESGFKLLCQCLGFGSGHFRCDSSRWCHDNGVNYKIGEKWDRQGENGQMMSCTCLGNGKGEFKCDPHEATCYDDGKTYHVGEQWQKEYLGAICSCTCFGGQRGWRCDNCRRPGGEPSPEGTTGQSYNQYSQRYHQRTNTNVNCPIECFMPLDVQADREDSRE

Q: With “GST-tagged RlpA recombinant protein (rare lipoprotein A of Glaesserella parasuis serotype 4) (natural protein; other documents disagree on this pair)” as the substance, how does the pKd read?
A: 8.80
